Laboratory results from patent US20230340152A1 (published 2023).

Key:
[1] = biological target: T1, CD73 construct with chicken N- and C-terminal domain sequence with human V144 and N185 knocked in (chicken; human); assay: SPR (ProteOn), CD73 variant immobilized
T1 chain: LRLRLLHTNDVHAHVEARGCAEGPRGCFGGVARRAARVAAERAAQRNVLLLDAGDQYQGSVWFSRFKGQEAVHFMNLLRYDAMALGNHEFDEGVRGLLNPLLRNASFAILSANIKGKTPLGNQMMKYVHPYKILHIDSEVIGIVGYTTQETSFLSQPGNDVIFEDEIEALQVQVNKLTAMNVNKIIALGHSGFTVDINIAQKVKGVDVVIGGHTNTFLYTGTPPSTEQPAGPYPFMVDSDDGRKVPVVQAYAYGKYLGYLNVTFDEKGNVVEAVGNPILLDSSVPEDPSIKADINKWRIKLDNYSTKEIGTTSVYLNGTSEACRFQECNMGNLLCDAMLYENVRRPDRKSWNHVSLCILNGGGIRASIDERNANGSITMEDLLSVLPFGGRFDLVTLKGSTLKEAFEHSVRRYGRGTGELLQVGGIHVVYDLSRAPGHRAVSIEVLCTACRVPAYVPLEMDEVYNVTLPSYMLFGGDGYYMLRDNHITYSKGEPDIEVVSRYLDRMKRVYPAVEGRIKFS
Method: Binding of MEDI9447 to wild-type and mutant CD73 proteins was measured by surface plasmon resonance (SPR) using a ProteOn instrument (BioRad). CD73 crude cell supernatant protein samples were diluted to 3 µg/ml in PBS, 0.005% Tween-20, pH 7.4 (BioRad) and immobilized to ~400 RU on a HTG tris-NTA sensor chip (BioRad) pre-activated with 10 mM NiSO₄, 10 mM MES, pH 6.0 (BioRad). An equivalently diluted crude cell supernatant sample from non-transfected cells was included as a reference channel control. Sensorgrams were recorded by flowing two-fold dilutions of MEDI9447 prepared in PBS, 0.005% Tween-20, pH 7.4, ranging from 5 nM to 0.31 nM. […] Antibody binding was measured at a flow rate of 100 µL/min with a 3 min association phase and 20 min dissociation phase. The sensor chip surface was regenerated between each run by an 800 s injection of 300 mM EDTA, pH 8.5 (BioRad) at a flow rate of 30 µL/min. Binding kinetics were analyzed using the ProteOn data analysis software. Double referencing was performed and, unless noted otherwise, a 1:1 Langmuir binding model was utilized to fit the data. Some CD73 variants containing mutations within the amino acid region 171-188 fit poorly to a 1:1 model (i.e., Chi² values >10% of Rmax). Where noted, these variants were fit with a heterogenous antigen (2:1) model. […]

[2] = biological target: T2, Recombinant soluble wild-type human CD73 with C-terminal 6x-histidine tag (human, UniProt P21589 27-549); assay: SPR (ProteOn), CD73 immobilized on HTG chip
T2 construct: dimer in solution; also called sCD73; WT huCD73
T2 sequence: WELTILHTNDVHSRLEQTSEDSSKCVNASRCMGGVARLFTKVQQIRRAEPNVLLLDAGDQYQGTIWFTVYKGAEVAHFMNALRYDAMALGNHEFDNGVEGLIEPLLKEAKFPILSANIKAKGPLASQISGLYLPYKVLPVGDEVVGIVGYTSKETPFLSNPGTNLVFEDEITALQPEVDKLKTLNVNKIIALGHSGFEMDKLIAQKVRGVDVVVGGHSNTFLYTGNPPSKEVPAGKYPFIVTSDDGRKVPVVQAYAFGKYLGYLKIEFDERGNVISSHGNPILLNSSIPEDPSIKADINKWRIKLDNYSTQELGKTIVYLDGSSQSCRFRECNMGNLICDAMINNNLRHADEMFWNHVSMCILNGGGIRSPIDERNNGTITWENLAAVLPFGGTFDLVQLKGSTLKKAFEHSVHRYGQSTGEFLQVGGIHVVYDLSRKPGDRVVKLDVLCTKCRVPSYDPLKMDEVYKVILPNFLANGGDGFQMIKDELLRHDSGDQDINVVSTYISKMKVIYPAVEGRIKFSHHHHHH

[3] = biological target: T3, Human CD73 on cells (MDA-MB-231, Jurkat CD73 knock-in, NCI-H322) (human, UniProt P21589 27-549); assay: flow cytometry, Jurkat (CD73 knock-in) / Jurkat
T3 construct: GPI-anchored native protein; also called native human CD73
T3 sequence: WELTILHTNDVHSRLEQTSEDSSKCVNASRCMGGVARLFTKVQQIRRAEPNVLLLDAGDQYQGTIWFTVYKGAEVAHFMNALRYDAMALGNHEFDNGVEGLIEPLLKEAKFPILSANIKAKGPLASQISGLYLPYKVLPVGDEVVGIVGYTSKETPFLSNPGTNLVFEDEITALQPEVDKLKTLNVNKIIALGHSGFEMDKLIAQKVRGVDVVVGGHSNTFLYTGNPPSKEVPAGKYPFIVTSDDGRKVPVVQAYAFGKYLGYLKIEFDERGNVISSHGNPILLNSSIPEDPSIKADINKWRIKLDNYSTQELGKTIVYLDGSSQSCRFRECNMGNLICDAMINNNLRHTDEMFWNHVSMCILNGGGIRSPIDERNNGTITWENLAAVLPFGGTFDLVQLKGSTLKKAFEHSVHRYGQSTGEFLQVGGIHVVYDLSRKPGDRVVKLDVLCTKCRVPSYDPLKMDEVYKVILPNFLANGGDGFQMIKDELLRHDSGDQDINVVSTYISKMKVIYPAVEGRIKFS

B1: MEDI9447 (antibody, human IgG1, lambda, V domains shown)
VH: EVQLLESGGGLVQPGGSLRLSCAASGFTFSSYAYSWVRQAPGKGLEWVSAISGSGGRTYYADSVKGRFTISRDNSKNTLYLQMNSLRAEDTAVYYCARLGYGRVDEWGRGTLVTVSS
VL: QSVLTQPPSASGTPGQRVTISCSGSLSNIGRNPVNWYQQLPGTAPKLLIYLDNLRLSGVPDRFSGSKSGTSASLAISGLQSEDEADYYCATWDDSHPGWTFGGGTKLTVLG
notes: Human IgG1-TM (L234F, L235E, P331S), lambda light chain; also called clone 10.3 antibody; 73combo3
Kd [1]: 0.079 nM | koff [2]: 1.94e-05 s⁻¹ | kon [2]: 4.63e+06 M⁻¹ s⁻¹ | Mean Fluorescence Intensity Ratio (MFIR) [3]: 7.9
